Experiments:
[1] = biological target: T1, recombinant cMet/HGFR with c-terminal His-tag, Cy5-labeled (UniProt P08581 25-932, limits assumed, Cy5 label (reacted with Cy5 Mono NHS Ester; sites not stated)); assay: competitive TR-FRET (Eu-amivantamab/Cy5-c-MET), EC50 ratio vs Reference Material; Ex. 11 drug product, 6 months at 5 C
T1 construct: Commercial protein; also called Cy5-c-MET; Cy5-labeled c-MET antigen; not shown: C-terminal His-tag
Excerpt: (§1) In this procedure, varying concentrations of unlabeled bispecific EGFR-cMet antibody sample compete with donor fluorophore (Europium (Eu) chelate) labeled bispecific EGFR-cMet antibody for binding to an acceptor fluorophore (Cy5)-labeled c-MET antigen. Excitation of the donor fluorophore results in a transfer of energy to the bound acceptor fluorophore (FRET process). The resultant FRET is detected by emission of light at 665 nm using a microplate reader capable of measuring time-resolved fluorescence. Sample dose response curves are compared to the Reference Material (RM).
(§2) c-MET Binding Materials and Methods. Certified commercial cMet, a recombinant cMet/HGFR with c-terminal His-tag is reacted with certified commercial Cy5 Mono NHS Ester to produce Cy5-labeled c-MET. Validated bispecific EGFR-cMet antibody is reacted with certified commercial Europium (Eu) chelate to produce Eu labeled bispecific EGFR-cMet antibody. […] Fluorescence is then measured by spectrophotometry at 665 nm, plotted against antibody concentration and analyzed by a four-parameter logistic model. The antibody concentration required to obtain half of the maximum fluorescence response (EC50) is determined for RM, assay control and samples. The potencies of assay control and samples are calculated based on the ratio of the sample (or control) and RM EC50 values and reported as a percentage activity relative to the RM.

[2] = biological target: T2, recombinant human EGFR/ErbB1/HER1 with C-terminal His tag, Cy5-labeled (human, UniProt P00533 25-645, Cy5 label (reacted with Cy5 Mono NHS Ester; sites not stated)); assay: competitive TR-FRET (Eu-amivantamab/Cy5-EGFR), EC50 ratio vs Reference Material; Ex. 3 acetate formulation with PS80, T0
T2 construct: Commercial protein; also called Cy5-EGFR; Cy5-labeled EGFR antigen; not shown: C-terminal His tag
Excerpt: as §1, with “EGFR” for “c-MET”, “RM.” for “Reference Material (RM).”
as §2, with “EGFR” for “c-MET”, “EGFR,” for “cMet,”, “human EGFR/ErbB1/HER1” for “cMet/HGFR”, “C-terminal His tag” for “c-terminal His-tag”, “EGFR.” for “c-MET.”, “Eu-labeled” for “Eu labeled”

[3] = biological target: T1, recombinant cMet/HGFR with c-terminal …; assay: competitive TR-FRET (Eu-amivantamab/Cy5-c-MET), EC50 ratio vs Reference Material; Ex. 2 Formulation 3 (acetate), 3 months at 5 C
Excerpt: as §1, §2

[4] = biological target: T2, recombinant human EGFR/ErbB1/HER1 with …; assay: competitive TR-FRET (Eu-amivantamab/Cy5-EGFR), EC50 ratio vs Reference Material; Ex. 12 drug product with rHuPH20, 3 months at 40 C
Excerpt: as §1, with “EGFR” for “c-MET”, “RM.” for “Reference Material (RM).”
as §2, with “EGFR” for “c-MET”, “EGFR,” for “cMet,”, “human EGFR/ErbB1/HER1” for “cMet/HGFR”, “C-terminal His tag” for “c-terminal His-tag”, “EGFR.” for “c-MET.”, “Eu-labeled” for “Eu labeled”

[5] = biological target: T1, recombinant cMet/HGFR with c-terminal …; assay: competitive TR-FRET (Eu-amivantamab/Cy5-c-MET), EC50 ratio vs Reference Material; Ex. 12 drug product with rHuPH20, 12 months at 5 C
Excerpt: as §1, §2

[6] = biological target: T1, recombinant cMet/HGFR with c-terminal …; assay: competitive TR-FRET (Eu-amivantamab/Cy5-c-MET), EC50 ratio vs Reference Material; Ex. 2 Formulation 1 (10 mM histidine), T0, 5 C table
Excerpt: as §1, §2

[7] = biological target: T1, recombinant cMet/HGFR with c-terminal …; assay: competitive TR-FRET (Eu-amivantamab/Cy5-c-MET), EC50 ratio vs Reference Material; Ex. 2 Formulation 1 (10 mM histidine), T0, 25 C table
Excerpt: as §1, §2

[8] = biological target: T1, recombinant cMet/HGFR with c-terminal …; assay: competitive TR-FRET (Eu-amivantamab/Cy5-c-MET), EC50 ratio vs Reference Material; Ex. 2 Formulation 1 (10 mM histidine), 3 months at 25 C
Excerpt: as §1, §2

- cMET Binding activity relative to Reference Material (%) [1]: 86%
- EGFR Binding % activity relative to RM [2]: 103%
- cMET Binding % activity relative to RM [3]: 109%
- EGFR Binding activity relative to Reference Material (%) [4]: 9%
- cMET Binding activity relative to Reference Material (%) [5]: 97%
- cMET Binding % activity relative to RM [6]: 87%
- cMET Binding % activity relative to RM [7]: 87%
- cMET Binding % activity relative to RM [8]: 94%
B1: amivantamab (bispecific antibody, human IgG1, kappa)
heavy 1: not shown
light 1: not shown
heavy 2: not shown
light 2: DIQMTQSPSSVSASVGDRVTITCRASQGISNWLAWFQHKPGKAPKLLIYAASSLLSGVPSRFSGSGSGTDFTLTISSLQPEDFATYYCQQANSFPITFGQGTRLEIKRTVAAPSVFIFPPSDEQLKSGTASVVCLLNNFYPREAKVQWKVDNALQSGNSQESVTEQDSKDSTYSLSSTLTLSKADYEKHKVYACEVTHQGLSSPVTKSFNRGEC
notes: The samples tested were high concentration (160 mg/mL) formulations, fresh or stored or stressed; also called JNJ-61186372; bispecific EGFR-cMet antibody
